Reference: the supplement of paper PMC7125110
± gives the standard error. Variants at the floor of the assay were thinned out.

B1: glmS ribozyme (parent)
chain: AUAAAAGCGCCAGAACUACAGAAAUGUAGUUGACGAGGAGGAGGUUUAUCGAAUUUUCGGCGGAUGCCUCCAAA

Tests used:
Conditions in all cases: with glucosamine-6-phosphate
[1] = variants of: B1; assay: self-cleavage kobs at 40 uM GlcN6P; higher = faster cleavage; RNA array
How it was run: (§1)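 kcat and KM were obtained from weighted Michaelis–Menten fits across concentrations of kobs values. Those came from one- or two-exponential decay fits to per-tile medians normalised to baseline and to non-cleaving reference variants. The variants were barcoded ribozymes transcribed in situ by E. coli RNA polymerase on sequenced MiSeq chips and tracked through a hybridised Cy3 probe at 37 °C, with 40 μM to 10 mM glucosamine-6-phosphate in HEPES/KCl/Mg(OAc)2 buffer flowed in.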

[2] = variants of: B1; assay: self-cleavage kobs at 640 uM GlcN6P; higher = faster cleavage; RNA array
How it was run: as §1

[3] = variants of: B1; assay: self-cleavage kobs at 160 uM GlcN6P; higher = faster cleavage; RNA array
How it was run: as §1

[4] = variants of: B1; assay: self-cleavage kobs at 2500 uM GlcN6P; higher = faster cleavage; RNA array
How it was run: as §1

[5] = variants of: B1; assay: self-cleavage kobs at 10000 uM GlcN6P; higher = faster cleavage; RNA array
How it was run: as §1

Variant	self-cleavage kobs at 40 uM GlcN6P [1]	self-cleavage kobs at 640 uM GlcN6P [2]	self-cleavage kobs at 160 uM GlcN6P [3]	self-cleavage kobs at 2500 uM GlcN6P [4]	self-cleavage kobs at 10000 uM GlcN6P [5]
A12C U56A A64C	< 1e-05 s⁻¹	9.73e-05 ± 3.4e-05 s⁻¹	–	–	–
A12U C16G	0.000539 ± 9e-05 s⁻¹	0.00491 ± 0.0008 s⁻¹	0.000549 ± 0.00013 s⁻¹	0.00786 ± 0.0024 s⁻¹	0.0117 ± 0.0031 s⁻¹
A12U C16U	0.00238 ± 0.0003 s⁻¹	0.0232 ± 0.0037 s⁻¹	0.00439 ± 0.00083 s⁻¹	0.076 ± 0.027 s⁻¹	0.0879 ± 0.035 s⁻¹
G13A G62U	< 1e-05 s⁻¹	< 1e-05 s⁻¹	< 1e-05 s⁻¹	< 1e-05 s⁻¹	< 1e-05 s⁻¹
C11U U31A G38U U49A U54G	< 1e-05 s⁻¹	–	–	–	–
A12U U30G U47G A48U U49C U69C C70G	< 1e-05 s⁻¹	–	–	–	< 1e-05 s⁻¹
C11U A48C	< 1e-05 s⁻¹	< 1e-05 s⁻¹	< 1e-05 s⁻¹	< 1e-05 s⁻¹	< 1e-05 s⁻¹
G13C A64C	< 1e-05 s⁻¹	–	< 1e-05 s⁻¹	< 1e-05 s⁻¹	< 1e-05 s⁻¹
C11G U30C U31G	< 1e-05 s⁻¹	–	–	–	–
G13A G44U C50G C71U	< 1e-05 s⁻¹	< 1e-05 s⁻¹	–	–	–
C11G U31G	< 1e-05 s⁻¹	< 1e-05 s⁻¹	–	–	–
A12U U57A G59C G60C	< 1e-05 s⁻¹	–	–	–	–
G13C A52C G62U	< 1e-05 s⁻¹	–	–	–	< 1e-05 s⁻¹
C11G U54A	< 1e-05 s⁻¹	–	–	–	–
A12G A48C	< 1e-05 s⁻¹	–	–	–	–
A12G A48U	< 1e-05 s⁻¹	–	< 1e-05 s⁻¹	–	2.34e-05 ± 7.6e-06 s⁻¹
G13U G38C G43U	< 1e-05 s⁻¹	–	–	–	< 1e-05 s⁻¹
A12U G13C A15C C34G	< 1e-05 s⁻¹	< 1e-05 s⁻¹	–	< 1e-05 s⁻¹	< 1e-05 s⁻¹
C11U A14G A15G	0.000235 ± 5.3e-05 s⁻¹	–	–	–	0.0112 ± 0.0025 s⁻¹
G13U A14C G35U G59C	< 1e-05 s⁻¹	–	–	–	–
C11U A48G C68A	< 1e-05 s⁻¹	–	–	–	–
G13C A48U	< 1e-05 s⁻¹	–	–	< 1e-05 s⁻¹	< 1e-05 s⁻¹
A12C A53G C68U	6.52e-05 ± 1.6e-05 s⁻¹	–	–	–	–
A12U U45G U55C	0.000356 ± 7.4e-05 s⁻¹	–	–	–	0.00793 ± 0.002 s⁻¹
A12C G43C G66U	< 1e-05 s⁻¹	–	–	–	< 1e-05 s⁻¹
A12U A15G C71U	0.00147 ± 0.00036 s⁻¹	–	–	–	–

Variant	self-cleavage kobs at 40 uM GlcN6P [1]	self-cleavage kobs at 640 uM GlcN6P [2]	self-cleavage kobs at 160 uM GlcN6P [3]	self-cleavage kobs at 2500 uM GlcN6P [4]	self-cleavage kobs at 10000 uM GlcN6P [5]
C11U G60U	< 1e-05 s⁻¹	< 1e-05 s⁻¹	–	< 1e-05 s⁻¹	< 1e-05 s⁻¹
A12U G40A G63C	< 1e-05 s⁻¹	–	–	–	–
G13A C67A C71A	< 1e-05 s⁻¹	–	–	–	–
G13A G38U C50G A64G	6.47e-05 ± 2.4e-05 s⁻¹	0.00011 ± 5.2e-05 s⁻¹	–	–	–
A12U A15G	0.00156 ± 0.00021 s⁻¹	0.0146 ± 0.0029 s⁻¹	0.00363 ± 0.00072 s⁻¹	0.0139 ± 0.0034 s⁻¹	0.0602 ± 0.02 s⁻¹
G13U A14U U30C A33C C71A	< 1e-05 s⁻¹	–	–	–	< 1e-05 s⁻¹
A12U G13A U47C A53G	< 1e-05 s⁻¹	–	–	–	–
C11U G51U	< 1e-05 s⁻¹	< 1e-05 s⁻¹	< 1e-05 s⁻¹	< 1e-05 s⁻¹	< 1e-05 s⁻¹
C11U G51A	< 1e-05 s⁻¹	–	–	< 1e-05 s⁻¹	–
G13U G41A U49G U55G	< 1e-05 s⁻¹	–	–	< 1e-05 s⁻¹	–
C11U A14G G40U A42C	< 1e-05 s⁻¹	–	–	–	< 1e-05 s⁻¹
C11U A15U U69G	6.47e-05 ± 2.5e-05 s⁻¹	–	–	–	–
C11G G44C G60A	< 1e-05 s⁻¹	–	< 1e-05 s⁻¹	–	< 1e-05 s⁻¹
A12C U30A G38C C61U	< 1e-05 s⁻¹	–	–	< 1e-05 s⁻¹	–
A12U C16A G29A A53U	9.7e-05 ± 2e-05 s⁻¹	–	–	–	–
A12U A33C A42C	< 1e-05 s⁻¹	–	–	–	–
A12C G32A A48G	< 1e-05 s⁻¹	–	–	–	–
C11U A42C	< 1e-05 s⁻¹	< 1e-05 s⁻¹	< 1e-05 s⁻¹	< 1e-05 s⁻¹	< 1e-05 s⁻¹
G13U G38U C68G	0.00012 ± 4.3e-05 s⁻¹	0.000157 ± 4.9e-05 s⁻¹	0.000111 ± 2.7e-05 s⁻¹	6.64e-05 ± 2.9e-05 s⁻¹	7.63e-05 ± 1.8e-05 s⁻¹
G13A C61G C68A C70U	< 1e-05 s⁻¹	–	–	–	–
A12U C16A A53U	6.29e-05 ± 1.7e-05 s⁻¹	0.000278 ± 8.9e-05 s⁻¹	–	0.00138 ± 0.00059 s⁻¹	–
G13U G60C	< 1e-05 s⁻¹	–	–	–	< 1e-05 s⁻¹
A12U G37C A42U A48C	< 1e-05 s⁻¹	–	–	–	–
G13A G44A U65A	< 1e-05 s⁻¹	–	–	–	–
A12U A39G	0.00377 ± 0.00072 s⁻¹	0.0284 ± 0.013 s⁻¹	0.00677 ± 0.0016 s⁻¹	0.0119 ± 0.0036 s⁻¹	0.105 ± 0.045 s⁻¹
G13A A15U G41U C50A U54A U57C	< 1e-05 s⁻¹	–	–	–	< 1e-05 s⁻¹

Variant	self-cleavage kobs at 40 uM GlcN6P [1]	self-cleavage kobs at 640 uM GlcN6P [2]	self-cleavage kobs at 160 uM GlcN6P [3]	self-cleavage kobs at 2500 uM GlcN6P [4]	self-cleavage kobs at 10000 uM GlcN6P [5]
G13A G43A C67A	< 1e-05 s⁻¹	–	–	–	–
G13A G51A	< 1e-05 s⁻¹	< 1e-05 s⁻¹	–	–	< 1e-05 s⁻¹
G13A G51C	< 1e-05 s⁻¹	–	< 1e-05 s⁻¹	–	< 1e-05 s⁻¹
C11G U46G C58G C67U	0.000158 ± 4.6e-05 s⁻¹	0.000483 ± 0.00015 s⁻¹	–	–	0.000304 ± 8.1e-05 s⁻¹
A12G A36U C50G C70U C71U	0.000102 ± 4.6e-05 s⁻¹	–	–	–	5.91e-05 ± 1.9e-05 s⁻¹
G13A G51A G62C	< 1e-05 s⁻¹	–	–	–	–
A12U G38A G41A A64G	< 1e-05 s⁻¹	–	–	–	< 1e-05 s⁻¹
C11U U30C C50U	< 1e-05 s⁻¹	–	–	–	< 1e-05 s⁻¹
A12U G29U A33U A42U U49A	< 1e-05 s⁻¹	–	–	–	–
A12C G59U C68G	< 1e-05 s⁻¹	–	–	–	–
G13U G32A G37C A42C	< 1e-05 s⁻¹	–	< 1e-05 s⁻¹	< 1e-05 s⁻¹	< 1e-05 s⁻¹
A12G C50G C58U	0.000139 ± 4.9e-05 s⁻¹	–	–	–	3.85e-05 ± 1.8e-05 s⁻¹
G13C G51C	< 1e-05 s⁻¹	< 1e-05 s⁻¹	–	< 1e-05 s⁻¹	< 1e-05 s⁻¹
A12U G63A	< 1e-05 s⁻¹	< 1e-05 s⁻¹	< 1e-05 s⁻¹	< 1e-05 s⁻¹	< 1e-05 s⁻¹
G13U A33G	< 1e-05 s⁻¹	< 1e-05 s⁻¹	< 1e-05 s⁻¹	< 1e-05 s⁻¹	< 1e-05 s⁻¹
C11U G37A G66U	< 1e-05 s⁻¹	–	–	–	–
A12U C16A G51C	< 1e-05 s⁻¹	–	–	–	–
A12C A20U C67G	9.99e-05 ± 2.5e-05 s⁻¹	–	–	–	0.00115 ± 0.00024 s⁻¹
A12C U55G	0.000833 ± 0.00013 s⁻¹	0.00404 ± 0.00084 s⁻¹	0.000979 ± 0.00021 s⁻¹	0.00822 ± 0.0022 s⁻¹	0.0274 ± 0.0044 s⁻¹
A12G G60C	< 1e-05 s⁻¹	< 1e-05 s⁻¹	< 1e-05 s⁻¹	< 1e-05 s⁻¹	< 1e-05 s⁻¹
A12G G60A	< 1e-05 s⁻¹	–	< 1e-05 s⁻¹	< 1e-05 s⁻¹	< 1e-05 s⁻¹
A12U U46C G59A	< 1e-05 s⁻¹	–	–	–	5.26e-05 ± 1.6e-05 s⁻¹
G13U G40U A48U C67A	< 1e-05 s⁻¹	–	–	–	< 1e-05 s⁻¹
A12G A36G	< 1e-05 s⁻¹	< 1e-05 s⁻¹	< 1e-05 s⁻¹	–	< 1e-05 s⁻¹
G13C U31A G51A	< 1e-05 s⁻¹	–	–	–	–
G13A A33C C50A C71U	< 1e-05 s⁻¹	–	–	< 1e-05 s⁻¹	–

Variant	self-cleavage kobs at 40 uM GlcN6P [1]	self-cleavage kobs at 640 uM GlcN6P [2]	self-cleavage kobs at 160 uM GlcN6P [3]	self-cleavage kobs at 2500 uM GlcN6P [4]	self-cleavage kobs at 10000 uM GlcN6P [5]
G13U C58A	4.24e-05 ± 1.8e-05 s⁻¹	0.000326 ± 5.2e-05 s⁻¹	7.4e-05 ± 1.6e-05 s⁻¹	0.000524 ± 8.1e-05 s⁻¹	0.00176 ± 0.00026 s⁻¹
G13A A64U	< 1e-05 s⁻¹	< 1e-05 s⁻¹	–	< 1e-05 s⁻¹	< 1e-05 s⁻¹
C11G U57A	< 1e-05 s⁻¹	< 1e-05 s⁻¹	< 1e-05 s⁻¹	–	–
A12G C16G G43C	< 1e-05 s⁻¹	–	–	–	–
G13U G32U G37A G40C	< 1e-05 s⁻¹	–	–	–	–
C11U G59C C71G	< 1e-05 s⁻¹	–	–	–	–
A12U C34G	< 1e-05 s⁻¹	< 1e-05 s⁻¹	< 1e-05 s⁻¹	< 1e-05 s⁻¹	< 1e-05 s⁻¹
G13U C16G A64U C67G	< 1e-05 s⁻¹	–	–	–	< 1e-05 s⁻¹
C11U G41U A64U	< 1e-05 s⁻¹	–	< 1e-05 s⁻¹	< 1e-05 s⁻¹	< 1e-05 s⁻¹
A12G C68G C71U	< 1e-05 s⁻¹	< 1e-05 s⁻¹	–	–	< 1e-05 s⁻¹
G13A U31C A36U C58A G60C G62A C67G	6.61e-05 ± 3.2e-05 s⁻¹	–	–	0.000425 ± 0.00017 s⁻¹	–
A12U U56A	0.00122 ± 0.00016 s⁻¹	0.0157 ± 0.0027 s⁻¹	0.0024 ± 0.00059 s⁻¹	0.04 ± 0.012 s⁻¹	0.0626 ± 0.016 s⁻¹
A12U G13A U31A G38A G40A	< 1e-05 s⁻¹	–	–	–	< 1e-05 s⁻¹
A12C A36C A48G C61U C70A	< 1e-05 s⁻¹	–	–	–	–
A12G U46C U49G C70U	< 1e-05 s⁻¹	–	–	–	3.44e-05 ± 1.4e-05 s⁻¹
G13U G40U A48C A53G U57G	< 1e-05 s⁻¹	–	–	–	–
G13A G41C C61A	< 1e-05 s⁻¹	< 1e-05 s⁻¹	< 1e-05 s⁻¹	–	–
A12C C58A G63A	< 1e-05 s⁻¹	–	–	–	–
G13C G35U G41U G43A G60C	< 1e-05 s⁻¹	–	–	–	–
C11G G44C	< 1e-05 s⁻¹	< 1e-05 s⁻¹	< 1e-05 s⁻¹	< 1e-05 s⁻¹	–
C11G G44U	< 1e-05 s⁻¹	< 1e-05 s⁻¹	–	–	< 1e-05 s⁻¹
C11G G44A	< 1e-05 s⁻¹	< 1e-05 s⁻¹	< 1e-05 s⁻¹	–	< 1e-05 s⁻¹
A12G A53C U55G	< 1e-05 s⁻¹	–	–	–	0.000115 ± 1.8e-05 s⁻¹
C11U G63A	< 1e-05 s⁻¹	< 1e-05 s⁻¹	< 1e-05 s⁻¹	< 1e-05 s⁻¹	< 1e-05 s⁻¹
